Results from patent US20230295335A1 (published 2023).
Residue numbers refer to the chain shown, from its start.

B1: IgG1-EpCAM-A37-FERL (antibody)
heavy: not shown
light: EIELTQSPGTLSLSPGERATLSCRASQTISNNYLAWYQQKRGQAPRLLIYAASSRATGIPDRFSGTGSGTDFTLTISRLEPEDFAVYYCAQGELYPRQFGGGTKLEIKRTVAAPSVFIFPPSDEQLKSGTASVVCLLNNFYPREAKVQWKVDNALQSGNSQESVTEQDSKDSTYSLSSTLTLSKADYEKHKVYACEVTHQGLSSPVTKSFNRGEC
B2: BisG2amm-EpCAM-323-A3-AALT/m4-1BB-3H3-AAKR (bispecific antibody, mouse IgG2a, kappa)
heavy 1: QIQLVQSGPELKKPGETVKISCKASGYTFTNYGMNWVRQASGEGLKWMGWINTYTGEPTYGEDFKGRFAFSLETSASTAYLQINNLKNEDTATYFCARFGNYVDYWGQGTTLTVSSAKTTAPSVYPLAPVCGDTTGSSVTLGCLVKGYFPEPVTLTWNSGSLSSGVHTFPAVLQSDLYTLSSSVTVTSSTWPSQSITCNVAHPASSTKVDKKIEPRGPTIKPCPPCKCPAPNAAGGPSVFIFPPKIKDVLMISLSPMVTCVVVDVSEDDPDVQISWFVNNVEVLTAQTQTHREDYNSTLRVVSALPIQHQDWMSGKEFKCKVNNKALPAPIERTISKPKGSVRAPQVYVLPPPEEEMTKKQVTLTCMVTDFMPEDIYVEWTNNGKTELNYKNTEPVLDSDGSYLMYSKLTVEKKNWVERNSYSCSVVHEGLHNHHTTKSFSRTPG
light 1: DIVMTQAAFSNPVTLGTSASISCRSSKNLLHSNGITYLYWYLQKPGQSPHLLIYQMSNLASGVPDRFSSSGSGTDFTLRISRVEAEDVGVYYCAQNLEIPRTFGGGTKLEIKRADAAPTVSIFPPSSEQLTSGGASVVCFLNNFYPKDINVKWKIDGSERQNGVLNSWTDQDSKDSTYSMSSTLTLTKDEYERHNSYTCEATHKTSTSPIVKSFNRNEC
heavy 2: EMQLVESGGGLVQPGRSMKLSCAGSGFTLSDYGVAWVRQAPKKGLEWVAYISYAGGTTYYRESVKGRFTISRDNAKSTLYLQMDSLRSEDTATYYCTIDGYGGYSGSHWYFDFWGPGTMVTVSSAKTTAPSVYPLAPVCGDTTGSSVTLGCLVKGYFPEPVTLTWNSGSLSSGVHTFPAVLQSDLYTLSSSVTVTSSTWPSQSITCNVAHPASSTKVDKKIEPRGPTIKPCPPCKCPAPNAAGGPSVFIFPPKIKDVLMISLSPMVTCVVVDVSEDDPDVQISWFVNNVEVLTAQTQTHREDYNSTLRVVSALPIQHQDWMSGKEFKCKVNNKALPAPIERTISKPKGSVRAPQVYVLPPPEEEMTKKQVTLTCMVKDFMPEDIYVEWTNNGKTELNYKNTEPVLDSDGSYFMYSRLRVEKKNWVERNSYSCSVVHEGLHNHHTTKSFSRTPG
light 2: DIQMTQSPSLLSASVGDRVTLNCRTSQNVYKNLAWYQQKLGEAPKLLIYNANSLQAGIPSRFSGSGSGTDFTLTISSLQPEDVATYFCQQYYSGNTFGAGTNLELKRADAAPTVSIFPPSSEQLTSGGASVVCFLNNFYPKDINVKWKIDGSERQNGVLNSWTDQDSKDSTYSMSSTLTLTKDEYERHNSYTCEATHKTSTSPIVKSFNRNEC
notes: Mouse IgG2a bispecific made by controlled Fab-arm exchange; one EpCAM arm, so monovalent for EpCAM; also called BsIgG2amm-EpCAM-323-A3-AALT/m4-1BB-3H3-AAKR; BisIgG2amm-EpCAM-323-A3-AALT/m4-1BB-3H3-AAKR
B3: bsIgG1-b12-FERL/b12-FEAR (bispecific antibody)
heavy 1: QVQLVQSGAEVKKPGASVKVSCQASGYRFSNFVIHWVRQAPGQRFEWMGWINPYNGNKEFSAKFQDRVTFTADTSANTAYMELRSLRSADTAVYYCARVGPYSWDDSPQDNYYMDVWGKGTTVIVSSASTKGPSVFPLAPSSKSTSGGTAALGCLVKDYFPEPVTVSWNSGALTSGVHTFPAVLQSSGLYSLSSVVTVPSSSLGTQTYICNVNHKPSNTKVDKRVEPKSCDKTHTCPPCPAPEFERGPSVFLFPPKPKDTLMISRTPEVTCVVVDVSHEDPEVKFNWYVDGVEVHNAKTKPREEQYNSTYRVVSVLTVLHQDWLNGKEYKCKVSNKALPAPIEKTISKAKGQPREPQVYTLPPSREEMTKNQVSLTCLVKGFYPSDIAVEWESNGQPENNYKTTPPVLDSDGSFLLYSKLTVDKSRWQQGNVFSCSVMHEALHNHYTQKSLSLSPG
heavy 2: B3 heavy 1 with R246G, D275A, L415F, K419R
light: EIVLTQSPGTLSLSPGERATFSCRSSHSIRSRRVAWYQHKPGQAPRLVIHGVSNRASGISDRFSGSGSGTDFTLTITRVEPEDFALYYCQVYGASSYTFGQGTKLERKRTVAAPSVFIFPPSDEQLKSGTASVVCLLNNFYPREAKVQWKVDNALQSGNSQESVTEQDSKDSTYSLSSTLTLSKADYEKHKVYACEVTHQGLSSPVTKSFNRGEC
notes: also called b12-FERLxb12-FEAR; bsIgG1-ctrl-b12-FERL/b12-FEAR
B4: IgG1-CD137-009-HC7LC2-FEAR (antibody)
heavy: EVQLVESGGGLVQPGRSLRLSCTASGFSLNDYWMSWVRQAPGKGLEWVGYIDVGGSLYYAASVKGRFTISRDDSKSIAYLQMNSLKTEDTAVYYCARGGLTYGFDLWGQGTLVTVSSASTKGPSVFPLAPSSKSTSGGTAALGCLVKDYFPEPVTVSWNSGALTSGVHTFPAVLQSSGLYSLSSVVTVPSSSLGTQTYICNVNHKPSNTKVDKRVEPKSCDKTHTCPPCPAPEFEGGPSVFLFPPKPKDTLMISRTPEVTCVVVAVSHEDPEVKFNWYVDGVEVHNAKTKPREEQYNSTYRVVSVLTVLHQDWLNGKEYKCKVSNKALPAPIEKTISKAKGQPREPQVYTLPPSREEMTKNQVSLTCLVKGFYPSDIAVEWESNGQPENNYKTTPPVLDSDGSFFLYSRLTVDKSRWQQGNVFSCSVMHEALHNHYTQKSLSLSPG
light: DIVMTQSPSSLSASVGDRVTITCQASEDISSYLAWYQQKPGKAPKRLIYGASDLASGVPSRFSASGSGTDYTFTISSLQPEDIATYYCHYYATISGLGVAFGGGTKVEIKRTVAAPSVFIFPPSDEQLKSGTASVVCLLNNFYPREAKVQWKVDNALQSGNSQESVTEQDSKDSTYSLSSTLTLSKADYEKHKVYACEVTHQGLSSPVTKSFNRGEC
B5: bsIgG1-b12-FERL/CD137-009-HC7LC2-FEAR (bispecific antibody)
heavy 1: B3 heavy 1
light 1: B3 light
heavy 2: B4 heavy
light 2: B4 light
notes: also called bsIgG1-b12-FERL/CD137-HC7LC2-FEAR; bsIgG1-b12-FERLxCD137-009-HC7LC2-FEAR

How the values were obtained:
[1] = molecular target: T1, FcγRIa (human, UniProt P12314 16-288, limits assumed, biotinylated); assay: SPR (Biacore 8K); His-tagged FcγR captured on anti-His chip
T1 construct: Bought His-tagged protein captured on anti-His chip; also called CD64 Protein, Human, Recombinant (His Tag), Biotinylated
T1 sequence (P12314 16-288 limits assumed): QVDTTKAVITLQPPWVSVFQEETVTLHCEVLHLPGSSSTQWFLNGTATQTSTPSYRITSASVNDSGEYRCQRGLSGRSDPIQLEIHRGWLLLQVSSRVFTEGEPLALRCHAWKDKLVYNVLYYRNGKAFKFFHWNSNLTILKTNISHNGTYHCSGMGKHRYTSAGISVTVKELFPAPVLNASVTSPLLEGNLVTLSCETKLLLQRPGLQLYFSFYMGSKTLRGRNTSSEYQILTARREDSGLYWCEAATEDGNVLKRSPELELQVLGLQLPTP

[2] = molecular target: T2, FcγRIIa-H131 (human, UniProt P12318 34-218, limits assumed); assay: as above
T2 construct: Bought His-tagged protein; also called CD32A Protein, Human, Recombinant (167 His, His Tag)
T2 sequence (looked up): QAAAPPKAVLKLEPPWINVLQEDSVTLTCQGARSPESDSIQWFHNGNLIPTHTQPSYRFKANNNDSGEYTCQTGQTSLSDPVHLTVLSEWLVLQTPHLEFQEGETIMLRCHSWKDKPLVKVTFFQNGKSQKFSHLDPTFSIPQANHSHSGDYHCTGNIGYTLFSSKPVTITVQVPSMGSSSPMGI

[3] = molecular target: T3, FcγRIIa-R131 (human, UniProt P12318 34-218, limits assumed); assay: as above
T3 construct: Bought His-tagged protein; also called CD32A Protein, Human, Recombinant (167 Arg, His & AVI Tag)
T3 sequence (looked up): T2 sequence (looked up) with H134R

[4] = molecular target: T4, FcγRIIb (human, UniProt P31994 43-217, limits assumed); assay: as above
T4 construct: Bought His-tagged protein; also called CD32B/Fcgr2b Protein, Human, Recombinant (His & AVI Tag)
T4 sequence (looked up): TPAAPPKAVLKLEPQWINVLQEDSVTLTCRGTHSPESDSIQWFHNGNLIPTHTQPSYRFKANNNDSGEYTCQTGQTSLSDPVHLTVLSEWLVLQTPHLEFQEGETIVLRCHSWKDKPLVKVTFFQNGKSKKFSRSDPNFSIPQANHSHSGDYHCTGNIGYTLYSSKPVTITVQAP

[5] = molecular target: T5, FcγRIIIa-F158 (human, UniProt P08637 17-208); assay: as above
T5 construct: extracellular domain; Bought His-tagged protein
T5 sequence (P08637 17-208): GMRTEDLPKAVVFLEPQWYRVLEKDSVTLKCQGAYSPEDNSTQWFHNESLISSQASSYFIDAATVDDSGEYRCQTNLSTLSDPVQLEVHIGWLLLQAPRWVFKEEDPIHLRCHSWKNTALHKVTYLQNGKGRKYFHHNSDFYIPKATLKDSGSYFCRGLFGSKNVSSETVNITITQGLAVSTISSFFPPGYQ

[6] = molecular target: T6, FcγRIIIa-V158 (human, UniProt P08637 17-208); assay: as above
T6 construct: Bought His-tagged protein
T6 sequence (P08637 17-208 F176V limits assumed): as the sequence (P08637 17-208) above, with F160V counted along it

[7] = molecular target: T7, neonatal Fc receptor (FcRn), His-tagged (SinoBiological, cat. no. CT009-H08H-B) (UniProt P55899 24-297); assay: SPR kinetics assay at pH 6.0; His-tagged FcRn captured on anti-His chip, antibody 0-500 nM
T7 sequence (P55899 24-297 limits assumed, form in doubt): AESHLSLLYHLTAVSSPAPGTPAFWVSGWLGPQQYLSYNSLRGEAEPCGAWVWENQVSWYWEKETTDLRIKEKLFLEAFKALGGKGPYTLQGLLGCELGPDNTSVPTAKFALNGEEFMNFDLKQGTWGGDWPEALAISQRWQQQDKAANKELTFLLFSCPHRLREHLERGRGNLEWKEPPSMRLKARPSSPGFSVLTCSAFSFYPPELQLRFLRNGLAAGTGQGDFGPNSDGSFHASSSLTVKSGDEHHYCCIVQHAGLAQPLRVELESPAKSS

[8] = molecular target: T7, neonatal Fc receptor (FcRn), His-tagged …; assay: SPR kinetics assay at pH 6.0; His-tagged FcRn captured on anti-His chip, antibody 0-500 nM; mean of three experiments
[9] = molecular target: T8, recombinant human EpCAM (R&D systems, cat no 9277-EP) (human, UniProt P16422 24-265); assay: BLI (Octet HTX); His-tagged human EpCAM on anti-Penta-HIS sensors, antibody 1.56-100 nM as analyte
T8 construct: also called human EpCAM extracellular domain
T8 sequence: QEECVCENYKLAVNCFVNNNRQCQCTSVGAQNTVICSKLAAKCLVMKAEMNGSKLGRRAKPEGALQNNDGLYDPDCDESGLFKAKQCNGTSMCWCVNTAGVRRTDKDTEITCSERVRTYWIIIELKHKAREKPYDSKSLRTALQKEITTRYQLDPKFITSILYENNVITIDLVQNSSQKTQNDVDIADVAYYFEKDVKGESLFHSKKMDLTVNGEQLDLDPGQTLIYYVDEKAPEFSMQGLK

[10] = molecular target: T8, recombinant human EpCAM (R&D systems, …); assay: BLI (Octet HTX); His-tagged human EpCAM on anti-Penta-HIS sensors, antibody as analyte; 1:1 global full fit
[11] = molecular target: T9, full length human EpCAM on cells (human, UniProt P16422 24-314); assay: flow cytometry on DiFi tumor cells
T9 construct: the cell line is named under assay; also called EpCAM on DiFi, HPAF-II and A549 tumor cells; CHO-S cells transfected with full length human EpCAM
T9 sequence: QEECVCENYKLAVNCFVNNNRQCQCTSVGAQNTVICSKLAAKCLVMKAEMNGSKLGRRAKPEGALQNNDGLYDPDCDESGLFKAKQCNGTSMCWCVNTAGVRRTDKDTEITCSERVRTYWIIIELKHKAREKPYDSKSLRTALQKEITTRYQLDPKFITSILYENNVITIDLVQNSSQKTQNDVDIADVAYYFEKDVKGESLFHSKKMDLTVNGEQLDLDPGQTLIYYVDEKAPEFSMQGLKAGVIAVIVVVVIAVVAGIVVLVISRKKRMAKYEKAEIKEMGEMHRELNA

Binder	binding result [1]	binding result [2]	binding result [3]	binding result [4]	binding result [5]	binding result [6]	koff [7] [s⁻¹]	kon [7] [M⁻¹ s⁻¹]	Kd [8] [nM]	binding result [11]	also measured
B1	no binding (tested: 3,000 nM (highest concentration tested))	no binding (tested: 10,000 nM (highest concentration tested))	no binding (tested: 10,000 nM (highest concentration tested))	no binding (tested: 10,000 nM (highest concentration tested))	no binding (tested: 10,000 nM (highest concentration tested))	no binding (tested: 10,000 nM (highest concentration tested))	0.0413	180000	230		
B2											Response [9]: 1.21 nm; Kd [10]: 3.2 nM; koff [10]: 0.0011 s⁻¹; kon [10]: 340000 M⁻¹ s⁻¹
B3										no binding (tested: up to 30 µg/mL)	
B4	no binding (tested: 3,000 nM (highest concentration tested))	no binding (tested: 10,000 nM (highest concentration tested))	no binding (tested: 10,000 nM (highest concentration tested))	no binding (tested: 10,000 nM (highest concentration tested))	no binding (tested: 10,000 nM (highest concentration tested))	no binding (tested: 10,000 nM (highest concentration tested))	0.0539	143000	375		
B5										no binding (tested: up to 30 µg/mL)	
